The record followed here is patent US20230407401A1 (NATIONAL INSTITUTE OF IMMUNOLOGY, published 2023).

This test deals with T1, S35 methionine radiolabelled BLM (in vitro translated) (UniProt P54132 1-1417, limits assumed, S35 methionine radiolabel).
T1 construct: also called in vitro translated BLM; radioactive BLM
In words: in vitro interaction of S35 methionine radiolabelled BLM with bound GST SMAD3, autoradiography. The protocol:
H. BLM directly interacted with SMAD3 and HDAC1. (Top) In vitro interactions were carried out with S35 methionine radiolabelled BLM and bound (left) GST and GST SMAD3, (right) GST and GST HDAC1. Post-interaction the bound radioactive BLM was detected by autoradiography. (Bottom) Inputs used for in vitro translated BLM (detected by autoradiography) and GST, GST SMAD3, GST HDAC1 (detected by Coomassie). The

T1 sequence (P54132 whole entry): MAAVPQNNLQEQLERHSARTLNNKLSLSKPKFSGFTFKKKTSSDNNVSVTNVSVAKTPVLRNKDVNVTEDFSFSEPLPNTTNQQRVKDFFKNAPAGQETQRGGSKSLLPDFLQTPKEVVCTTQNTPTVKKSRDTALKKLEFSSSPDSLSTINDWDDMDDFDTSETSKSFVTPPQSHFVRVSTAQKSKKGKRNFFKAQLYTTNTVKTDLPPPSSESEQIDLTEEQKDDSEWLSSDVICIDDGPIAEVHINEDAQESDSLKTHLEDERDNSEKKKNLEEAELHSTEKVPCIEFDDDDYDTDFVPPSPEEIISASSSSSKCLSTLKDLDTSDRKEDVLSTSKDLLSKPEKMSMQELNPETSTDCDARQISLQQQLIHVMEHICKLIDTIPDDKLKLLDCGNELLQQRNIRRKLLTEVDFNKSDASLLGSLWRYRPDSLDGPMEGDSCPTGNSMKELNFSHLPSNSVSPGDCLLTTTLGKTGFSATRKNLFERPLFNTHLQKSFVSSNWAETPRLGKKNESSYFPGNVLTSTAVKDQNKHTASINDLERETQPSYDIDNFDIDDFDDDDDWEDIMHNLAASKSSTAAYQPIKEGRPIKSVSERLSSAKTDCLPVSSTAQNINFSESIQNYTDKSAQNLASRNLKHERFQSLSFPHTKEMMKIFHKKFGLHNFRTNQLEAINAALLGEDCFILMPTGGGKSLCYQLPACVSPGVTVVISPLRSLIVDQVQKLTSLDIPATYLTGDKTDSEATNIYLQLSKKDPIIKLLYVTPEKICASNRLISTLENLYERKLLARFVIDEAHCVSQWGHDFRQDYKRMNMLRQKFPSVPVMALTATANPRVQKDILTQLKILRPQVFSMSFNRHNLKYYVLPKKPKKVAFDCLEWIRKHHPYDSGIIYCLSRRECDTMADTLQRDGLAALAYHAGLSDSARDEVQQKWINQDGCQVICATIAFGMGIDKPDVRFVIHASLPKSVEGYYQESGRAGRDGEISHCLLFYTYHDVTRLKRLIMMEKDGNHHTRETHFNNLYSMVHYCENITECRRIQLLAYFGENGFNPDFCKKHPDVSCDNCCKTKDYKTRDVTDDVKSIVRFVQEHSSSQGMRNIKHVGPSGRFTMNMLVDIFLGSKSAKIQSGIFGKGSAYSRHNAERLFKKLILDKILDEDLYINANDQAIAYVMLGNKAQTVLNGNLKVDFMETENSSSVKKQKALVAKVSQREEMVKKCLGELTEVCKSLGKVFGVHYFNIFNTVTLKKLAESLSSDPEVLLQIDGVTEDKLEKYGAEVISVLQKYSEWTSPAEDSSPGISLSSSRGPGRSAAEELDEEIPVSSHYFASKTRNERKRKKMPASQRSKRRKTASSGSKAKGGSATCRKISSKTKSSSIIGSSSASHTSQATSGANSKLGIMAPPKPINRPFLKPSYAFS

B1: GST SMAD3 (WT) (other, UniProt P84022 1-425, looked up)
chain: MSSILPFTPPIVKRLLGWKKGEQNGQEEKWCEKAVKSLVKKLKKTGQLDELEKAITTQNVNTKCITIPRSLDGRLQVSHRKGLPHVIYCRLWRWPDLHSHHELRAMELCEFAFNMKKDEVCVNPYHYQRVETPVLPPVLVPRHTEIPAEFPPLDDYSHSIPENTNFPAGIEPQSNIPETPPPGYLSEDGETSDHQMNHSMDAGSPNLSPNPMSPAHNNLDLQPVTYCEPAFWCSISYYELNQRVGETFHASQPSMTVDGFTDPSNSERFCLGLLSNVNRNAAVELTRRHIGRGVRLYYIGGEVFAECLSDSAIFVQSPNCNQRYGWHPATVCKIPPGCNLKIFNNQEFAALLAQSVNQGFEAVYQLTRMCTIRMSFVKGWGAEYRRQTVTSTPCWIELHLNGPLQWLDKVLTQMGSPSIRCSSVS
notes: also called pGEX6-SMAD3 WT; not shown: Glutathione S-transferase tag of the pGEX6 vector
Take B1: the binding result is given as “binds”.
